Data on 1 molecule can be found in article PMC10344899, “ZmmiR169q/ZmNF-YA8 is a module that homeostatically regulates primary root growth and salt tolerance in maize”.

The data set deals with T1, ZmNF-YA8 (Zea mays, UniProt B6SPD7 2-301).
T1 sequence: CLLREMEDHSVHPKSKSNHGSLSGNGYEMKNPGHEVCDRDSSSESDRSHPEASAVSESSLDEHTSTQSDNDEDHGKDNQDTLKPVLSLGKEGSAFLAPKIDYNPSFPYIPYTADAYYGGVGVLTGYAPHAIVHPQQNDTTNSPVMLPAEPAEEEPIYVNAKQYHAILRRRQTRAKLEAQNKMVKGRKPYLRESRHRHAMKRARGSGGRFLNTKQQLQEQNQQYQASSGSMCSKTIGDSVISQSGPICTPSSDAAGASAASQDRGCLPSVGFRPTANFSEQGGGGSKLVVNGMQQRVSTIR
The data set is described as follows: EMSA; shifted band reduced by 20x unlabelled probe and eliminated at 40x; 20 min incubation; nondenaturing 4% polyacrylamide gel, 0.5x TBE; LightShift Chemiluminescent EMSA kit; binding buffer, salt, pH and temperature not stated. To be noted: protein: recombinant; tags: His (pET28a); blunt.

B1: ZmERF1B promoter P1 CCAAT-box EMSA probe (dsDNA)
DNA 1: GGCGCGCATTCGCCTCGCCTCCAATTCCCATCCATCACTAACTTG
DNA 2: CAAGTTAGTGATGGATGGGAATTGGAGGCGAGGCGAATGCGCGCC
Take B1: the binding result was “binds”.
